Assay results reported in US20170227547A1 (Hoffmann-La Roche, published 2017).

T1: human IL-12 (human, UniProt P29459 23-219; P29460 23-328)
T1 construct: also called interleukin 12
T1 sequence (looked up) 1: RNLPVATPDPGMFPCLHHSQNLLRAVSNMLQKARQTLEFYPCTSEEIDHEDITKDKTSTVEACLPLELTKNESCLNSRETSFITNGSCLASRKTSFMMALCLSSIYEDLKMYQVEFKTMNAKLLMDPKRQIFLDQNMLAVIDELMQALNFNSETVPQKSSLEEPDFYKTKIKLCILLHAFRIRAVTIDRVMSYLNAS
T1 sequence (looked up) 2: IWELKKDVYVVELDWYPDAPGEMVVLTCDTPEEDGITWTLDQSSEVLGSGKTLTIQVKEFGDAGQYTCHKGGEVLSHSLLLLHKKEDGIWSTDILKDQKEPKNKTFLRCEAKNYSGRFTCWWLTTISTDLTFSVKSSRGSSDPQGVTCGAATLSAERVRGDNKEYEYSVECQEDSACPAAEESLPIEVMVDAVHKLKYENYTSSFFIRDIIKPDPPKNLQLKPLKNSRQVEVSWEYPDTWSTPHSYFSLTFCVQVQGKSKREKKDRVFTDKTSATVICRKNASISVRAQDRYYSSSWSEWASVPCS

B1: Ustekinumab (antibody, V domains shown)
VH: EVQLVQSGAEVKKPGESLKISCKGSGYSFTTYWLGWVRQMPGKGLDWIGIMSPVDSDIRYSPSFQGQVTMSVDKSITTAYLQWNSLKASDTAMYYCARRRPGQGYFDFWGQGTLVTVSS
VL: DIQMTQSPSSLSASVGDRVTITCRASQGISSWLAWYQQKPEKAPKSLIYAASSLQSGVPSRFSGSGSGTDFTLTISSLQPEDFATYYCQQYNIYPYTFGQGTKLEIK
notes: Fully human IgG1; also called CNTO 1275; Stelara
B2: mAb 2 (antibody, V domains shown)
VH: QVQLVESGGGVVQPGRSLRLSCAASGFTFSSYGMHWVRQAPGKGLEWVAFIRYDGSNKYYADSVKGRFTISRDNSKNTLYLQMNSLRAEDTAVYYCKTHGSHDNWGQGTMVTVSS
VL: QSVLTQPPSVSGAPGQRVTISCSGSRSNIGSNTVKWYQQLPGTAPKLLIYYNDQRPSGVPDRFSGSKSGTSASLAITGLQAEDEADYYCQSYDRYTHPALLFGTGTKVTVLG
notes: Fv domain of Briakinumab on the Ustekinumab constant domains (IgG1)
B3: Briakinumab (antibody, V domains shown)
VH: QVQLVESGGGVVQPGRSLRLSCAASGFTFSSYGMHWVRQAPGKGLEWVAFIRYDGSNKYYADSVKGRFTISRDNSKNTLYLQMNSLRAEDTAVYYCKTHGSHDNWGQGTMVTVSS
VL: QSVLTQPPSVSGAPGQRVTISCSGSRSNIGSNTVKWYQQLPGTAPKLLIYYNDQRPSGVPDRFSGSKSGTSASLAITGLQAEDEADYYCQSYDRYTHPALLFGTGTKVTVLG
notes: Fully human IgG1; also called ABT 874; J 695
B4: mAb 1 (antibody, V domains shown)
VH: EVQLVQSGAEVKKPGESLKISCKGSGYSFTTYWLGWVRQMPGKGLDWIGIMSPVDSDIRYSPSFQGQVTMSVDKSITTAYLQWNSLKASDTAMYYCARRRPGQGYFDFWGQGTLVTVSS
VL: DIQMTQSPSSLSASVGDRVTITCRASQGISSWLAWYQQKPEKAPKSLIYAASSLQSGVPSRFSGSGSGTDFTLTISSLQPEDFATYYCQQYNIYPYTFGQGTKLEIK
notes: Fv domain of Ustekinumab on the constant parts of Briakinumab (IgG1)
B5: mAb 3 (antibody, V domains shown)
VH: EVQLVQSGAEVKKPGESLKISCKGSGYSFTTYWLGWVRQMPGKGLDWIGIMSPVDSDIRYSPSFQGQVTMSVDKSITTAYLQWNSLKASDTAMYYCARRRPGQGYFDFWGQGTLVTVSS
VL: QSVLTQPPSVSGAPGQRVTISCSGSRSNIGSNTVKWYQQLPGTAPKLLIYYNDQRPSGVPDRFSGSKSGTSASLAITGLQAEDEADYYCQSYDRYTHPALLFGTGTKVTVLG
notes: Heavy chains of Ustekinumab and light chains of Briakinumab (whole chains)
B6: mAb 8 (antibody, IgG1, V domains shown)
VH: QVQLVESGGGVVQPGASLALSCAASGFTFSSYGMHWVRQAPGKGLEWVAFIRYDGSNAYYADSVAGRFTISRDNSKNTLYLQMNSLAAEDTAVYYCKTHGSHDNWGQGTMVTVSS
VL: QSVLTQPPSVSGAPGQRVTISCSGSRSNIGSNTVKWYQQLPGTAPKLLIYYNDQRPSGVPDRFSGSKSGTSASLAITGLQAEDEADYYCQSYDRYTHPALLFGTGTKVTVL
notes: Briakinumab variant (IgG1) with five positively charged heavy chain residues mutated; also called Briakinumab with HC mutations R16A, R19A, K57A, K64A, R83A
B7: mAb 9 (antibody, IgG1, V domains shown)
VH: QVQLVESGGGVVQPGRSLRLSCAASGFTFSSYGMHWVRQAPGKGLEWVAFIRYDGSNKYYADSVKGRFTISRDNSKNTLYLQMNSLRAEDTAVYYCKTHGSHDNWGQGTMVTVSS
VL: QSVLTQPPSVSGAPGQRVTISCSGSASNIGSNTVKWYQQLPGTAPKLLIYYNDQAPSGVPDRFSGSKSGTSASLAITGLQAEDEADYYCQSYDAYTHPALLFGTGTKVTVL
notes: Briakinumab variant (IgG1) with three positively charged residues of the light chain CDRs mutated to alanine; also called Briakinumab with LC mutations R27A, R55A, R94A

What was measured:
[1] = biological target: human neonatal Fc receptor (FcRn), non-covalent complex with beta-2-microglobulin (human) (UniProt P55899); test: FcRn affinity column (Example 2), Fc-region after IdeS cleavage
Chain of human neonatal Fc receptor (FcRn), non-covalent complex with beta-2-microglobulin (human) (P55899 other isoform, or with tags, fused parts or gaps limits assumed, chain 1 of 2): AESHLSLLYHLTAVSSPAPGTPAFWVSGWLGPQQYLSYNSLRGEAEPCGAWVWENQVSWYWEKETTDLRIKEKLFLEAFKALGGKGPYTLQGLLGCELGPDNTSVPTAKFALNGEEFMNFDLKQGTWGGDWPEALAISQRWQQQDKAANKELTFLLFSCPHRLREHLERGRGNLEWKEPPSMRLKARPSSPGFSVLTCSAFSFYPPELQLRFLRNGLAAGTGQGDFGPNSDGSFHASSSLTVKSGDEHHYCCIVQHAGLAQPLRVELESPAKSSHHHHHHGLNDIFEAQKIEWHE
Chain of human neonatal Fc receptor (FcRn), non-covalent complex with beta-2-microglobulin (human) (b2m, as listed by the source limits assumed, chain 2 of 2): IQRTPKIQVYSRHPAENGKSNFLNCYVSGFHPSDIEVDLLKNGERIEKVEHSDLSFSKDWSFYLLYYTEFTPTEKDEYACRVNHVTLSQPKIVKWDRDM

[2] = biological target: human neonatal Fc receptor (FcRn), non-covalent complex with beta-2-microglobulin (human) (UniProt P55899); test: FcRn affinity column, run of the Bevacizumab comparison
[3] = biological target: human neonatal Fc receptor (FcRn), non-covalent complex with beta-2-microglobulin (human) (UniProt P55899); test: SPR, huFcRn immobilised, pH 6.0, steady state affinity normalised to Ustekinumab; SPR steady state, pH 6.0; the reference, set to 1
[4] = biological target: human neonatal Fc receptor (FcRn), non-covalent complex with beta-2-microglobulin (human) (UniProt P55899); test: FcRn affinity chromatography, pH gradient (Example 2), pH measured offline; FcRn affinity column, Example 2; elution pH at 84.3 min
[5] = biological target: human neonatal Fc receptor (FcRn), non-covalent complex with beta-2-microglobulin (human) (UniProt P55899); test: SPR, huFcRn immobilised, pH 6.0, steady state affinity normalised to Ustekinumab
[6] = biological target: human neonatal Fc receptor (FcRn), non-covalent complex with beta-2-microglobulin (human) (UniProt P55899); test: FcRn affinity chromatography, pH gradient 5.5-8.8, 140 mM NaCl (Example 2); FcRn affinity column, Example 2, 140 mM NaCl, pH gradient; complete antibody
human IL-12 [7] = biological target: T1, human IL-12; test: SPR, IL-12
[8] = biological target: human neonatal Fc receptor (FcRn), non-covalent complex with beta-2-microglobulin (human) (UniProt P55899); test: FcRn affinity column (Example 2)
[9] = biological target: human neonatal Fc receptor (FcRn), non-covalent complex with beta-2-microglobulin (human) (UniProt P55899); test: SPR, FcRn, buffer pH 6.4
[10] = biological target: human neonatal Fc receptor (FcRn), non-covalent complex with beta-2-microglobulin (human) (UniProt P55899); test: SPR, FcRn, buffer pH 6.6
human IL-12 [11] = biological target: T1, human IL-12; test: IL-12 ELISA, concentration calculated from the fit of the Briakinumab calibration curve
[12] = biological target: human neonatal Fc receptor (FcRn), non-covalent complex with beta-2-microglobulin (human) (UniProt P55899); test: FcRn affinity column, Example 3 method, elution buffer 20 mM Tris/HCl, 400 mM NaCl, pH 8.8; FcRn affinity column, Example 3, high salt 400 mM NaCl
[13] = biological target: human neonatal Fc receptor (FcRn), non-covalent complex with beta-2-microglobulin (human) (UniProt P55899); test: SPR, FcRn, buffer pH 6.0
[14] = biological target: human neonatal Fc receptor (FcRn), non-covalent complex with beta-2-microglobulin (human) (UniProt P55899); test: FcRn affinity chromatography, pH gradient 5.5-8.8, 140 mM NaCl (Example 2)
[15] = biological target: human neonatal Fc receptor (FcRn), non-covalent complex with beta-2-microglobulin (human) (UniProt P55899); test: FcRn affinity chromatography, pH gradient (Example 2), pH measured offline; FcRn affinity column, Example 2; elution pH at 93.7 min
[16] = biological target: human neonatal Fc receptor (FcRn), non-covalent complex with beta-2-microglobulin (human) (UniProt P55899); test: SPR, FcRn, buffer pH 6.8
[17] = biological target: human neonatal Fc receptor (FcRn), non-covalent complex with beta-2-microglobulin (human) (UniProt P55899); test: SPR, FcRn, buffer pH 7.0
[18] = biological target: human neonatal Fc receptor (FcRn), non-covalent complex with beta-2-microglobulin (human) (UniProt P55899); test: SPR, huFcRn immobilised, pH 6.0, steady state affinity normalised to Ustekinumab; SPR steady state, pH 6.0, KD relative to Ustekinumab = 1
human IL-12 [19] = biological target: T1, human IL-12; test: IL-12 ELISA, absorbance against antibody concentration
[20] = biological target: human neonatal Fc receptor (FcRn), non-covalent complex with beta-2-microglobulin (human) (UniProt P55899); test: FcRn affinity chromatography, pH gradient (Example 2), pH measured offline

| Molecule | FcRn column retention time [2] [min] | rel. KD (Ustekinumab = 1) [5] | Kd (human IL-12 [7]) [nM] | koff (human IL-12 [7]) [s⁻¹] | kon (human IL-12 [7]) [M⁻¹ s⁻¹] | FcRn column retention time [8] [min] | window of IL-12 binding relative to Briakinumab (Briakinumab=100%) (human IL-12 [11]) [%] | FcRn column retention time [14] [min] | other results |
| --- | --- | --- | --- | --- | --- | --- | --- | --- | --- |
| IdeS-cleaved Fc-region of Ustekinumab |  |  |  |  |  |  |  |  | FcRn column retention time [1]: 85.2 min |
| Bevacizumab-wild-type (antibody) | 84.7 |  |  |  |  |  |  |  |  |
| IdeS-cleaved Fc-region of Briakinumab |  |  |  |  |  |  |  |  | FcRn column retention time [1]: 85.7 min |
| B1 | 83.6 | 1 | 0.2 | 0.00018 | 900000 | 84.3 | ≤ 20 |  | rel. KD (Ustekinumab = 1) [3]: 1; FcRn column elution pH [4]: 7.4 pH; FcRn column retention time [6]: 84.3 min; Kd [9]: 1000 nM; Kd [10]: 3100 nM; FcRn column retention time [12]: 80.4 min; Kd [13]: 390 nM |
| B2 |  | 0.3 | 0.25 | 0.0003 | 1.2e+06 |  | ≤ 20 | 93 |  |
| B3 | 91.6 | 0.2 | 0.07 | 6e-05 | 800000 | 93.7 | ≤ 20 |  | FcRn column elution pH [15]: 7.9 pH; FcRn column retention time [6]: 93.7 min; Kd [16]: 600 nM; Kd [17]: 4200 nM; Kd [9]: 100 nM; Kd [10]: 360 nM; rel. KD (Ustekinumab = 1) [18]: 0.2; FcRn column retention time [12]: 83.1 min; Kd [13]: 90 nM |
| B4 |  | 1 | 0.24 | 0.00041 | 1.7e+06 |  |  | 84.3 |  |
| B5 |  | 0.2 |  |  |  |  |  | 92.4 | binding result (human IL-12 [19]): no binding (tested: 12 ng/mL) |
| B6 |  | 0.4 | 0.07 | 9.1e-05 | 1.2e+06 | 90.1 |  | 90.1 | FcRn column elution pH [20]: 7.7 pH |
| B7 |  | 0.4 | 0.01 | 0.00013 | 8.8e+06 | 86.2 |  | 86.2 | FcRn column elution pH [20]: 7.5 pH |
